Assay results published in article PMC8184831.

Tested on: SOX2 (hSOX2) (human)
Experiment: EMSA
Conditions: Plasmid EMSA: 60 mM KCl, 12 mM Hepes pH 7.9, 2 mM MgCl2, 1 mM DTT, 0.12 mM EDTA, 12% glycerol, 0.01% NP40, 10 ng/uL DNA, 15 min 30 C; 0.8% agarose 0.5x TBE. …

Substance: SOX2 non-specific-site EMSA probe
- binding signal (fold higher Kd than specific site): 30

Substance: SOX2 specific-site EMSA probe
- Kd: 2 nM
